Results on one molecule are retold here after US20240294931A1 (VIB VZW, published 2024).

The target of experiment [1] is T1, Arabidopsis thaliana PHYTOCHROME A SIGNAL TRANSDUCTION1 (Arabidopsis thaliana, UniProt Q9LDL7 1-490).
T1 construct: 490 aa; Y2H fusion domains not described; also called PAT1; At5g48150
T1 sequence: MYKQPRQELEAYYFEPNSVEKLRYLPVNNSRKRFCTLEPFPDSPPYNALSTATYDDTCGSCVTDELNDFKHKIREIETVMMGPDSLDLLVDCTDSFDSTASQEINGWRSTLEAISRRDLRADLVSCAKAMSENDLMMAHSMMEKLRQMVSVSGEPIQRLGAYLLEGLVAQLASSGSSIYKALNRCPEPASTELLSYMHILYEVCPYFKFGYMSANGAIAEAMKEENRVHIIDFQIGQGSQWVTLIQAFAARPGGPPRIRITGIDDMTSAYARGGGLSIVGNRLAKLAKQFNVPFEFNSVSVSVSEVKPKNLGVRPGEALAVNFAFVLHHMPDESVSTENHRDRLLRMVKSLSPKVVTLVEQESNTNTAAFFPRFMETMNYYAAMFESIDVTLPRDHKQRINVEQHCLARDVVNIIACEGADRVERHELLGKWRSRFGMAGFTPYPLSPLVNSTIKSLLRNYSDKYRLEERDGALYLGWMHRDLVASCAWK
The experiment is described as follows: yeast two-hybrid.

For experiment [2], the target named is T2, Arabidopsis thaliana SCARECROW-LIKE 21 (Arabidopsis thaliana, UniProt Q9S7H5 1-413).
T2 construct: Y2H fusion domains not described; Also the endogenous protein co-purifying in the ERF115 TAP; also called SCL21; AT2G04890
T2 sequence: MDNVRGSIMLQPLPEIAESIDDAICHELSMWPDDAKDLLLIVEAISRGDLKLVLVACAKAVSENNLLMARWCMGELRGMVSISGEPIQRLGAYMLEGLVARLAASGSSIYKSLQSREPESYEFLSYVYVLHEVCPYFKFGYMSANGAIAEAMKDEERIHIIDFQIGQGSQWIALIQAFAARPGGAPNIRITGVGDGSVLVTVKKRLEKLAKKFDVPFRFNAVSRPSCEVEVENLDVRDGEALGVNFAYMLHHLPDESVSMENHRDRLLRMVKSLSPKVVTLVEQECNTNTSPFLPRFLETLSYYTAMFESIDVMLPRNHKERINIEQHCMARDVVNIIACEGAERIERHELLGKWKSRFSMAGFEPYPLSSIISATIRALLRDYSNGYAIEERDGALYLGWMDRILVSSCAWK
Description: yeast two-hybrid with ERF115 fragments. As for the experimental part:
FIGS. 1A-1L. ERF115 interacts with SCL21 and PAT1. FIG. 1A, Protein interactions identified through TAP using ERF115 and SCL21 as bait. Arrowheads point towards co-purifying proteins. FIG. 1B, Yeast two-hybrid interaction of ERF115 full length and fragments with SCL21 and PAT1. Growth was verified on control medium (+HIS) or selective medium (−HIS) supplemented with 15 mM 3-Amino-1,2,4-triazole (3-AT), using β-glucuronidase (GUS) as a negative control. FIG. 1C, Yeast two-hybrid interaction of ERF2 and ERF6 without (−) or fused to the conserved ERF115 interaction motif (+) with SCL21. The assay was performed similar to (FIG. 1B). […], Root tips expressing ERF115 (dots) (FIGS. 1D and 1E), SCL21 (no expression visible) (FIGS. 1F and 1G), and PAT1 (dots) (FIGS. 1H And 1I) under control conditions (FIGS. 1D, 1F, and 1H) or treated with bleomycin (FIGS. 1E, 1G, and 1I). Arrowheads indicate the quiescent center (QC). Cell walls are counterstained with propidium iodide (PI). Bars=50 μm. FIGS. 1J-1L, Expression of PAT1 (green) and ERF115 (red) in root tips 10 h15 to 11 h30 after recovery from bleomycin treatment. […] Cell walls are counterstained (white) by SCRI Renaissance 2200 dye. Bars=25 μm.

B1: Arabidopsis thaliana ERF115 A-fragment (N-terminal sequence that precedes the APETALA2 domain) (other)
chain: MANSGNYGKRPFRGDESDEKKEADDDENIFPFFSARSQYDMRAMVSALTQVIGNQSSSHDNNQHQPVVYNQQDPNPPAPPTQDQGLLRK
notes: Y2H fusion domains not described
For B1, the binding result in experiment [1] and in experiment [2] was “binds” each time.
